Source: paper PMC11743138, “Structural basis for the interaction between the Drosophila RTK Sevenless (dROS1) and the GPCR BOSS” (Nature Communications, 2025)

Columns and labels:
[1] = target: T1, dROS1 (Sevenless) extracellular region construct 2-3 (D. melanogaster, UniProt P13368 440-931); test: SPR
T1 chain: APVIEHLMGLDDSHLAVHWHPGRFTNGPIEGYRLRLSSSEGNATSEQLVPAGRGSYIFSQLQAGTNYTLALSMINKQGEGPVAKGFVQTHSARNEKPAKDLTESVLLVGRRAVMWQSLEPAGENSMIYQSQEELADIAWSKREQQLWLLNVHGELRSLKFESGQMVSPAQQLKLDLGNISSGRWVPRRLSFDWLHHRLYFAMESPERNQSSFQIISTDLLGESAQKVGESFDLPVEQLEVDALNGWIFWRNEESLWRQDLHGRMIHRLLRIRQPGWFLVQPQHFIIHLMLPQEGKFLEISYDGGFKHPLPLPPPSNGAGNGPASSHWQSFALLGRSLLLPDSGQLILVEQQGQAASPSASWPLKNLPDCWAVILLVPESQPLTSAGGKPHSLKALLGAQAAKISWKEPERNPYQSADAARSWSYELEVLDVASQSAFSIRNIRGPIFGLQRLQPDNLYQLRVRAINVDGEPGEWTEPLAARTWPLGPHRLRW

[2] = target: T2, dROS1 (Sevenless) full extracellular region, construct 1-9 (D. melanogaster, UniProt P13368 126-2113); test: SPR; BIAcore T200; dROS1 constructs covalently coupled (NHS/EDC) to a CM5 chip, BOSS ECR proteins flowed over at 10 µL/min for 180 s; 20 mM HEPES pH 7.5, 100 mM NaCl; plateau RU against BOSS concentration fitted to a single-site specific binding model; details: both partners purified
T2 construct: Sevenless (dROS1), D. melanogaster, extracellular region with FNIII domains 1 to 9, residues 126-2113; A Factor Xa cut site stands between the N-terminal octa-histidine tag and the protein; Coupled covalently to a CM5 chip in SPR; also called dROS1 1-9; full ECR of dROS1; source: Trichoplusia ni (Hi5) cells, baculovirus, purified from the medium (Ni resin, SEC)

[3] = target: T3, dROS1 (Sevenless) extracellular region construct 1-4, his-tagged (D. melanogaster, UniProt P13368 126-1298); test: as above; details: both partners purified
T3 construct: Sevenless (dROS1), D. melanogaster, N-terminus of the ECR to the fourth FNIII domain, residues 126-1298; His tag is said to be kept for the HDX-MS experiment (immobilised on Ni resin); Factor Xa cut site after the His tag; also called dROS1 (1-4); N-terminal region of dROS1; source: Trichoplusia ni (Hi5) cells, baculovirus, purified from the medium (Ni resin, SEC); not shown: His8, N-terminal, …
T3 sequence (looked up): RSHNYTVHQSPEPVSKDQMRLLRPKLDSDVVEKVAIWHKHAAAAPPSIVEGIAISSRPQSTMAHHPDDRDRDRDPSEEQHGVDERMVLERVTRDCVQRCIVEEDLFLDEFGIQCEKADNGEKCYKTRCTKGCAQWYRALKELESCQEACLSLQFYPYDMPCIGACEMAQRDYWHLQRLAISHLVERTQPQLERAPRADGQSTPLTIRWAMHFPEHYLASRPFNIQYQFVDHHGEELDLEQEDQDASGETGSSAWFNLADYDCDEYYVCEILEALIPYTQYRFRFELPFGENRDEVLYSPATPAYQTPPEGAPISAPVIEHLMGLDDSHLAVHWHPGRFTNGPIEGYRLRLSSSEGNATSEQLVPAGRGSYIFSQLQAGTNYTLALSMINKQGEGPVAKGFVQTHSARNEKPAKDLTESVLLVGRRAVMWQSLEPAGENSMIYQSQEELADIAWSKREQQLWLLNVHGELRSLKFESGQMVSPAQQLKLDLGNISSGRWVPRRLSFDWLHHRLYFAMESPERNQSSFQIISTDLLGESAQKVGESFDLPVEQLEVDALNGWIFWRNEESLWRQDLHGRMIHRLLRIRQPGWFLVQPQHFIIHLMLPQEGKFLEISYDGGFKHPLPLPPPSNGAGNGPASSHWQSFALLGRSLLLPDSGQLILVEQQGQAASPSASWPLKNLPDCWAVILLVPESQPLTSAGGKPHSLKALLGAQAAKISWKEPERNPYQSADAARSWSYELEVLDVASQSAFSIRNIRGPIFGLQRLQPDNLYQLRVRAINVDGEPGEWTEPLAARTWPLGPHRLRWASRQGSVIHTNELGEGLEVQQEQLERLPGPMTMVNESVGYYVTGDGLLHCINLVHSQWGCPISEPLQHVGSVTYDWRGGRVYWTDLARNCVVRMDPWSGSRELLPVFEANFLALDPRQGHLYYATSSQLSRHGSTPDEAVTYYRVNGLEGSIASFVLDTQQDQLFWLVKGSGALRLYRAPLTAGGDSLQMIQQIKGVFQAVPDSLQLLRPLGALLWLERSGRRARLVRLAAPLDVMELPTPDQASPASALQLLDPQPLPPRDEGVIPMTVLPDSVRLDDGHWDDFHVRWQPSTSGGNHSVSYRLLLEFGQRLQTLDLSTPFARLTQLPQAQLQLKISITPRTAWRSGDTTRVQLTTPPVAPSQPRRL

B1: BOSS (Bride Of Sevenless) extracellular region, His tag cleaved (domain or fragment, D. melanogaster, UniProt P22815 102-510, looked up)
chain: GTTASLVPEICLNGLQLTVNSADEGTVIRKQEEFVKILEGDVVLSVLTKDPDSALFVINRVNQANLIMADFEIGIRAISIDNASLAENLLIQEVQFLQQCTTYSMGIFVDWELYKQLESVIKDLEYNIWPIPGTRAHLFPKVAHLLHQMPWGEKIASVEIATETLEMYNEFMEAARQEHMCLMHFKSDDNVYIMFGNKLASHFKENGTLFSVPTDRTDDEFLADLPNRAFVLMENEIDLSTAVELDATPTALDEILIGKSVLPSRVLSFAGSIIDLMNWLRGSLSKHCKRGEEHDLYVLESCFNFLNFIEDWRTSEYRQAHDTAEILSLLLMRKLGTAMNFQMYQKKVLTLDKITGESRTELREIASQNFVTNVTTYYHYNRDNHTSLELKTKFGQVFNCQYSAGDNRR
notes: Bride of sevenless (BOSS), D. melanogaster, extracellular region, residues 102-510; also called BOSS ECR; BOSSWT; source: Trichoplusia ni (Hi5) cells, baculovirus, purified from the medium (Ni resin, SEC; Factor Xa cleavage, Ni flow-through, SEC); not shown: His8, N-terminal, cleaved
With B1 as the binder, how does the Kd [1] read?
The Kd was 5 µM.

What about the Kd [2] of the same binder?
The Kd was 4.4 µM.

What about the Kd [3] of the same binder?
The Kd was 3 to 5 µM.
